Assay results reported in paper PMC10417383, “DNA-Binding Activity of CAMTA3 Is Essential for Its Function: Identification of Critical Amino Acids for Its Transcriptional Activity”.

Target: T1, CAMTA3 CG-1 WT (Arabidopsis thaliana, UniProt Q8GSA7 1-153)
T1 sequence: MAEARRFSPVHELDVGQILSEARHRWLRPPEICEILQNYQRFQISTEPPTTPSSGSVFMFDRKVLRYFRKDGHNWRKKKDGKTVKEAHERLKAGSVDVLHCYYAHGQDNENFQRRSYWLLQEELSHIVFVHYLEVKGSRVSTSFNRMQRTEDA
Test: EMSA; complex detected from 25 ng protein, good binding at 50 ng or more; 20 fmol probe; reduced by unlabeled PDF1.4 competitor; 1X LightShift EMSA binding buffer, 50 ng/ul poly(dI-dC), 20 fmol probe in 20 ul, +/- 4 pmol unlabeled DNA, room temperature 30 min; 5% native PAGE, 0.5X TBE; pH and salt not given
Conditions: protein: recombinant; tags: His (pET28a); label: 3'-biotin on strand 1; blunt

B1: PDF1.4 promoter probe (dsDNA)
DNA 1: CGTGAAAGTCACGCGCCAAGAACAAA
DNA 2: TTTGTTCTTGGCGCGTGACTTTCACG
B1: binds.
